Test results taken from patent US20260167712A1, “INHIBITORY ANTIBODIES AGAINST GLUT1” (ICOSAGEN CELL FACTORY OÜ, priority 2022, published 2026).
Entries after “also recorded” stand apart in the source; their conditions may differ.

T1: SLC2A3 pseudotyped VLPs (Homo sapiens, UniProt P11169)
T1 sequence (P11169 1-496): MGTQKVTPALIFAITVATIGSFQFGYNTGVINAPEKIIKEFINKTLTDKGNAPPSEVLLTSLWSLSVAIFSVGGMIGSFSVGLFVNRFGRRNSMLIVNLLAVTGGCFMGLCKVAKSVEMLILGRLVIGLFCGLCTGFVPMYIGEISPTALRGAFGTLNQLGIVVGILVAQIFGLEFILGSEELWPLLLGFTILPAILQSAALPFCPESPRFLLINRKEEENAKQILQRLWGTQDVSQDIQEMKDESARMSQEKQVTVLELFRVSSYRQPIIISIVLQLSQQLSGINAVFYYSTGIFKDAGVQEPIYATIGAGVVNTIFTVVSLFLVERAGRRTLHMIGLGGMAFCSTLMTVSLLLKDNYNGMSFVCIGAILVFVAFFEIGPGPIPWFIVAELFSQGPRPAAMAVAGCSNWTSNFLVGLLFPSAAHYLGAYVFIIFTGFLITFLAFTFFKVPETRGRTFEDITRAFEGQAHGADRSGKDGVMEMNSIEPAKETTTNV

T2: SLC2A1 pseudotyped VLPs (Homo sapiens, UniProt P11166)
T2 sequence (P11166 1-492): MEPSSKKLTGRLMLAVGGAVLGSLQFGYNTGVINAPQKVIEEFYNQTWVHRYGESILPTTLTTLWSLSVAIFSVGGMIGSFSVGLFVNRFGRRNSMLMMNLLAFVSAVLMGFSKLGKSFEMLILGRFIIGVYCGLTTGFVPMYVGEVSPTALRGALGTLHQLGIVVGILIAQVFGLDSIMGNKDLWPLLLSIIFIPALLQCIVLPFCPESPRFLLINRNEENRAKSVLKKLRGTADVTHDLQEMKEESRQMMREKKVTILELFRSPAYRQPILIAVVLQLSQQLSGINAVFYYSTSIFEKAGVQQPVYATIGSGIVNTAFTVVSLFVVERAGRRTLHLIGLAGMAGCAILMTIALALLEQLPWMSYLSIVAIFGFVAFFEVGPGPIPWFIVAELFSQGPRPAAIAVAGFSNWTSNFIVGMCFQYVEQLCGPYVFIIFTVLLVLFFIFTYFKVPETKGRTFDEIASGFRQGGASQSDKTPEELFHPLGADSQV

T3: SLC2A4 pseudotyped VLPs (Homo sapiens, UniProt P14672)
T3 sequence (P14672 1-509): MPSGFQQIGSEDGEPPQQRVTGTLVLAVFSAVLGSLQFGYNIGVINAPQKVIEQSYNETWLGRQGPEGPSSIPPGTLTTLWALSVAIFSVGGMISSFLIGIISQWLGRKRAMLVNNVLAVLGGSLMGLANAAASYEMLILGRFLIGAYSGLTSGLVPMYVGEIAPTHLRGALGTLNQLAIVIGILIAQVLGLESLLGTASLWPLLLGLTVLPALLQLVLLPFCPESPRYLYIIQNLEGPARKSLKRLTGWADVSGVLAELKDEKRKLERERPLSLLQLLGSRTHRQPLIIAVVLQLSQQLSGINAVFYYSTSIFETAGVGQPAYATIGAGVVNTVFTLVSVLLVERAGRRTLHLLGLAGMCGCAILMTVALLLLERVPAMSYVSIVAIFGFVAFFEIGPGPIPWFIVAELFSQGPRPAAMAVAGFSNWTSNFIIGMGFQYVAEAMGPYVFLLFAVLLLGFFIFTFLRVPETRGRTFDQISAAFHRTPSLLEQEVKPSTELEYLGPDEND

T4: HEK-293-ALL cells transfected with human SLC2A1 (Homo sapiens, UniProt P11166)
T4 construct: expressed in transfected cells; host or cells: HEK-293-ALL
T4 sequence (P11166 1-492): T2 sequence (P11166 1-492)

T5: SLC2A1 pseudotyped VLPs (UniProt P11166 1-492)
T5 chain: T2 sequence (P11166 1-492)

B1: 6F12 #33 (antibody, V domains shown)
VH: AVTLDESGGGLQTPGGALSLVCKASGFTFSDHAIFWVRQAPDKGLEFVAAISSGTGSWTAYATVVKGRATISRDNGQSTVRLQLNNLRAADTATYYCAKGAGSACCYAGSIDAWGHGTEVIVSS
VL: ALTQPSSVSANPGETVKITCSGGSSSSYYGWYQQKSPGSAPVTLIYYNDKRPSDIPSRFSGSKSGSTATLTITGVQVEDEAVYYCGTGDGSFAIFGAGTTLTVL
B2: 2E5 #22 (antibody, V domains shown)
VH: AVTLDESGGGLQTPGGALSLVCKASGFTFSTKGMGWVRQTPGKGLEWVAGISSMRRYTYYAPAVKGRATISRDNGQSTVRLQLSSLRAEDSGTYYCARDATYCSWTTSTCGWSGGTIDAWGHGTEVIVSS
VL: ALTQPSSVSANLGGTVKITCSGGSGNYGWYQQKSPGSVPVTVIYSNDKRPSDIPSRFSGSGSGSTATLTITGVQVEDEAVYFCGSRDSSYVGLFGAGTTLTVL

Columns and labels:
SLC2A3 pseudotyped VLPs = biological target: T1, SLC2A3 pseudotyped VLPs; experiment: ELISA-based VLP binding assay, SLC2A3; conditions: compared to MOCK VLPs, FIG. 3
Method: (§1) An ELISA-based VLP binding assay was carried out to compare the EC50 values of antibody clones (FIG. 1). Similarly, ELISA based VLP binding assay was performed to compare the binding of the antibodies to different glucose transporters (FIG. 3). MaxiSorp™ high-capacity binding ELISA plate (Thermo Fisher Scientific, US) were coated with 5 μg/mL SLC2A1, SLC2A2, SLC2A3, SLC2A4 pseudotyped VLPs or MOCK VLPs in PBS overnight. The plate was washed and blocked for 1 h with 0.05% Tween 20, 2% BSA in PBS. Serial dilutions of antibodies were incubated on a washed plate for 1 hour, followed by a 1-hour incubation with goat anti-human IgG horse radish peroxidase (HRP) conjugated (Invitrogen) antibody. TMB (3,3′,5,5′-Tetramethylbenzidine) Solution VII (Biopanda Diagnostics) was used as a substrate for HRP and 0.5 M H2SO4 was used as stop solution. After every step, the wells were washed with 0.05% Tween 20, 0.1% Proclin 300 PBS solution. Absorption at 450 nm was measured with Thermo Scientific™ Multiskan™ FC Microplate Photometer. Exemplary wise used antibodies 1G2 #9, 2A2 #12, 2E5 #22, 5G5 #30, 6F12 #33, 7C3 #39 all bound SLC2A1 VLPs with low nanomolar EC50 values (FIG. 1).

SLC2A1 pseudotyped VLPs [1] = biological target: T2, SLC2A1 pseudotyped VLPs; experiment: ELISA-based SLC2A1 VLP binding assay; conditions: 5 μg/mL VLP coating, FIG. 1
Method: as §1

SLC2A4 pseudotyped VLPs = biological target: T3, SLC2A4 pseudotyped VLPs; experiment: ELISA-based VLP binding assay, SLC2A4; conditions: compared to MOCK VLPs, FIG. 3
Method: as §1

[2] = biological target: T4, HEK-293-ALL cells transfected with human SLC2A1; experiment: 2-Deoxyglucose uptake assay (Glucose Uptake-Glo); assay type: cell-based; conditions: 2-hour incubation, 0.35 nM to 6.89 μM, 1 mM 2DG for 20 min, FIG. 4
Method: To evaluate if the described anti-SLC2A1 antibodies inhibit glucose uptake, a commercial Glucose Uptake-Glo Assay kit (Promega) was utilized according to manufacturer's instructions. In short, HEK-293-ALL cells were transfected with human SLC2A1 expression plasmid and were incubated at 37° C. overnight in the presence of 5% CO2. Cells were washed with 0.5% BSA PBS twice and 7000 cells were plated per well into white clear bottom 96-well plates in 0.5% BSA PBS in the presence of 0.35 nM to 6.89 μM anti-SLC2A1 antibodies or glucose uptake inhibitor BAY-876 (CaymanChem). Cells were incubated for 2 hours at room temperature. Glucose uptake was initiated by the addition of 1 mM 2-deoxyglucose (2DG) and was allowed to proceed for 20 min at 37° C. in the presence of 5% CO2. After adding STOP and neutralization reagents included in the kit, luminescence was measured using GloMax Explorer microplate reader (Promega). Nonspecific luminescence was measured in lysates from cells without (2DG) being added. Data was normalized to nonspecific luminescence and to the average value of luminescence in the presence of no inhibitors.

SLC2A1 pseudotyped VLPs [3] = biological target: T5, SLC2A1 pseudotyped VLPs; experiment: ELISA

Row | Molecule | binding to SLC2A3 VLPs (SLC2A3 pseudotyped VLPs) | EC50 of binding to SLC2A1 VLPs (SLC2A1 pseudotyped VLPs [1]) | binding to SLC2A4 VLPs (SLC2A4 pseudotyped VLPs) | glucose (2-deoxyglucose) uptake [2] | EC50 (SLC2A1 pseudotyped VLPs [3]) [nM]
1 | B1 | did not bind | low nanomolar | did not bind | strong concentration dependent decrease | 0.6
2 | B2 | did not bind; also recorded: Some binding | low nanomolar | did not bind; also recorded: Some binding | strong concentration dependent decrease | 0.5
